Reference: paper PMC7359353, “Rab27a co-ordinates actin-dependent transport by controlling organelle-associated motors and track assembly proteins” (Nature Communications, 2020)
Read-outs that look alike come from different tables or passages of the source. Values belong to the molecule of their own block, whether it stands above or below them.

Assays:
GST-Rab27a-Q78L = target: T1, GST-Rab27a-Q78L (UniProt P23640 1-221, Q78L); test: pull-down; quantitative GST pull-down: increasing concentrations of GST-Rab27a-Q78L on beads, HEK293 lysate (GFP-SPIRE1-MSFH ~50 nM); GFP depletion from the supernatant measured by fluorospectrometry at 20 °C; fraction bound fitted for Kd
T1 construct: Rab27a; rat Rab27a is stated only for the BiFC constructs; also called GTP-locked Rab27a-Q78L; active Rab27a-Q78L; source: E. coli Rosetta, purified (GSH-Sepharose 4B, size-exclusion chromatography)
T1 sequence (looked up): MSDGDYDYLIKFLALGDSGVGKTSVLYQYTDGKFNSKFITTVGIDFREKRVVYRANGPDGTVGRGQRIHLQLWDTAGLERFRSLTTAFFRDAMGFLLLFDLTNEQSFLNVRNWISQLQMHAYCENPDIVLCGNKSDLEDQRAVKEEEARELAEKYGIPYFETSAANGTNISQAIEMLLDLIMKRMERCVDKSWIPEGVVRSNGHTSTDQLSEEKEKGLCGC

Mlph RBD (Homo sapiens) = Mlph RBD (Homo sapiens) (UniProt Q9BV36); conditions: cited from earlier work
[1] = target: myosin-Va GTD (Homo sapiens) (UniProt Q9Y4I1); conditions: cited from earlier work
[2] = target: myosin-Va GTD (Homo sapiens) (UniProt Q9Y4I1); conditions: cited from earlier work; remark: listed apart in the source
vYCE-Rab27a Q78L = target: T2, vYCE-Rab27a Q78L (rat, UniProt P23640 1-221, Q78L); test: split reporter (BiFC, NanoBiT); BiFC in living HEK293a cells: vYNE-SPIRE1/2 and vYCE-Rab27a co-expressed with mCherry; vYFP signal normalised to mCherry, 48 h after transfection; conditions: partners not purified
T2 construct: rat Rab27a; also called Q78L mutant; source: HEK293a, transfected, in living cells
T2 sequence (looked up): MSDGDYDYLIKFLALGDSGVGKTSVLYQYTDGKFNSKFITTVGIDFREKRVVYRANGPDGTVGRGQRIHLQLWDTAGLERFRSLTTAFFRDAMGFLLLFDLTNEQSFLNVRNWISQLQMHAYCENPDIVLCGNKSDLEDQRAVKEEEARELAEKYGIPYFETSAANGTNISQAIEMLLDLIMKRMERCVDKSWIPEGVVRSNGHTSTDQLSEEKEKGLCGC

vYCE-Rab27a wild type = target: T3, vYCE-Rab27a wild type (rat, UniProt P23640 1-221); test: as above; conditions: partners not purified
T3 construct: rat Rab27a; also called wild-type Rab27a; WT; source: HEK293a, transfected, in living cells
T3 sequence (looked up): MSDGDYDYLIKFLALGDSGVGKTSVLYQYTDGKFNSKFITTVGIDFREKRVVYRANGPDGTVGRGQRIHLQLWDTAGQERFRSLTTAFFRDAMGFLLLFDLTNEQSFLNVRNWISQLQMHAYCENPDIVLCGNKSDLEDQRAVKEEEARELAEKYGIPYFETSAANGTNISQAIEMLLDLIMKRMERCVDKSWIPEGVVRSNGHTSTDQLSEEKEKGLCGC

myosin-Va GTD (Homo sapiens), sequence (Q9Y4I1 1448-1855): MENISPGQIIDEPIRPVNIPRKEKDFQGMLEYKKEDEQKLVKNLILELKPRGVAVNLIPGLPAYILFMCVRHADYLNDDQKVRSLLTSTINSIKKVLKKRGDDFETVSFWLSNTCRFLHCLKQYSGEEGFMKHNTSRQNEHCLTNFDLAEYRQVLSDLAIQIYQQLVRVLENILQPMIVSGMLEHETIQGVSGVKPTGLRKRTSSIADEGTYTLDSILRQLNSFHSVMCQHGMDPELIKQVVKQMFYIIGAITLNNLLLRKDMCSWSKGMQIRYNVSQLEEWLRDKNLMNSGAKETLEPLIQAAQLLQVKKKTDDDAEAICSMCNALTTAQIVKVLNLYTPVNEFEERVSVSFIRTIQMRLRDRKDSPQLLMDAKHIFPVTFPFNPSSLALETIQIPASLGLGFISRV
Mlph RBD (Homo sapiens), sequence (Q9BV36 4-124): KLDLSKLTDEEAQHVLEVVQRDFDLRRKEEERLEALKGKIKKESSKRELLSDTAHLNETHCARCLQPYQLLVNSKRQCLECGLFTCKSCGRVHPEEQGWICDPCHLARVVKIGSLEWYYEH

Molecule: Rab27a (from UniProt P51159)
Kd (Mlph RBD (Homo sapiens)): 112 nM

Molecule: Mlph (from UniProt Q9BV36)
Kd [1]: 500 nM

Molecule: SPIRE2 (from UniProt Q8WWL2)
Kd [2]: 900 nM

Results, then the molecule that gave them:

Kd (GST-Rab27a-Q78L): 143 nM
Molecule: GFP-Mlph-RBD (domain or fragment)

mean normalised BiFC (% max) (vYCE-Rab27a Q78L): 75.2 % max
mean normalised BiFC (% max) (vYCE-Rab27a wild type): 89.3 % max
B1: vYNE-SPIRE1 (natural protein, human, UniProt Q08AE8-2 1-742, looked up)
chain: MAQAAGPAGGGEPRTEAVGGEGPREPGAAGGAAGGSRDALSLEEILRLYNQPINEEQAWAVCYQCCGSLRAAARRRQPRHRVRSAAQIRVWRDGAVTLAPAADDAGEPPPVAGKLGYSQCMETEVIESLGIIIYKALDYGLKENEERELSPPLEQLIDHMANTVEADGSNDEGYEAAEEGLGDEDEKRKISAIRSYRDVMKLCAAHLPTESDAPNHYQAVCRALFAETMELHTFLTKIKSAKENLKKIQEMEKSDESSTDLEELKNADWARFWVQVMRDLRNGVKLKKVQERQYNPLPIEYQLTPYEMLMDDIRCKRYTLRKVMVNGDIPPRLKKSAHEIILDFIRSRPPLNPVSARKLKPTPPRPRSLHERILEEIKAERKLRPVSPEEIRRSRLDVTTPESTKNLVESSMVNGGLTSQTKENGLSTSQQVPAQRKKLLRAPTLAELDSSESEEETLHKSTSSSSVSPSFPEEPVLEAVSTRKKPPKFLPISSTPQPERRQPPQRRHSIEKETPTNVRQFLPPSRQSSRSLEEFCYPVECLALTVEEVMHIRQVLVKAELEKYQQYKDIYTALKKGKLCFCCRTRRFSFFTWSYTCQFCKRPVCSQCCKKMRLPSKPYSTLPIFSLGPSALQRGESSMRSEKPSTAHHRPLRSIARFSSKSKSMDKSDEELQFPKELMEDWSTMEVCVDCKKFISEIISSSRRSLVLANKRARLKRKTQSFYMSSPGPSEYCPSERTISEI
notes: human SPIRE1, cDNA NM_020148.2; also called SPIRE1 (BiFC); source: HEK293a, transfected, in living cells; not shown: enhanced Venus YFP N-terminus fragment (amino acids 1-173)

mean normalised BiFC (% max) (vYCE-Rab27a Q78L): 85.2 % max
mean normalised BiFC (% max) (vYCE-Rab27a wild type): 85.4 % max
B2: vYNE-SPIRE2 (natural protein, human, UniProt Q8WWL2 1-714, looked up)
chain: MARAGSCGGAAAGAGRPEPWELSLEEVLKAYEQPLNEEQAWAVCFQGCRGLRGSPGRRLRDTGDLLLRGDGSVGAREPEAAEPATMVVPLASSEAQTVQSLGFAIYRALDWGLDESEERELSPQLERLIDLMANNDSEDSGCGAADEGYGGPEEEEEAEGVPRSVRTFAQAMRLCAARLTDPRGAQAHYQAVCRALFVETLELRAFLARVREAKEMLQKLREDEPHLETPRAELDSLGHTDWARLWVQLMRELRRGVKLKKVQEQEFNPLPTEFQLTPFEMLMQDIRARNYKLRKVMVDGDIPPRVKKDAHELILDFIRSRPPLKQVSERRLRPLPPKQRSLHEKILEEIKQERRLRPVRGEGWAARGFGSLPCILNACSGDAKSTSCINLSVTDAGGSAQRPRPRVLLKAPTLAEMEEMNTSEEEESPCGEVTLKRDRSFSEHDLAQLRSEVASGLQSATHPPGGTEPPRPRAGSAHVWRPGSRDQGTCPASVSDPSHPLLSNRGSSGDRPEASMTPDAKHLWLEFSHPVESLALTVEEVMDVRRVLVKAEMEKFLQNKELFSSLKKGKICCCCRAKFPLFSWPPSCLFCKRAVCTSCSIKMKMPSKKFGHIPVYTLGFESPQRVSAAKTAPIQRRDIFQSLQGPQWQSVEEAFPHIYSHGCVLKDVCSECTSFVADVVRSSRKSVDVLNTTPRRSRQTQSLYIPNTRTLDFK
notes: human SPIRE2, cDNA AJ422077; also called SPIRE2 (BiFC); source: HEK293a, transfected, in living cells; not shown: enhanced Venus YFP N-terminus fragment (amino acids 1-173)

Kd (GST-Rab27a-Q78L; one partner purified): 707 ± 155 nM
B3: GFP-SPIRE1-MSFH (domain or fragment)
chain: PEEIRRSRLDVTTPESTKNLVESSMVNGGLTSQTKENGLSTSQQVPAQRKKLLRAPTLAELDSSESEEETLHKSTSSSSVSPSFPEEPVLEAVSTRKKPPKFLPISSTPQPERRQPPQRRHSIEKETPTNVRQFLPPSRQSSRSLEEFCYPVECLALTVEEVMHIRQVLVKAELEKYQQYKDIYTALKKGKLCFCCRTRRFSFFTWSYTCQFCKRPVCSQCCKKMRLPSKPYSTLPIFSLGPSALQRGESSMRSEKPSTAHHRPLRSIARFSSKSKSMDKSDEELQFPKELMEDWSTMEVCVDCKKFISEIISSSRRSLVLANKRARLKRKTQSFYMSSPGPSEYCPSERTISEI
modifications: Limits are not in the text (Fig. 6a / Supplementary Table 9). By convention, the start is just after the last WH2 (ends at 386) and the end is the C-terminus. NM_020148.2 is taken as the 742-aa …
